This is an account of results in patent US20240117030A1 (Pfizer, published 2024).

Assay [1] concerns the target T1, biotinylated human IL-33 wild-type (WT), reduced with 3 mM DTT (human, UniProt O95760 112-270, limits assumed, biotinylated (site not stated)).
T1 sequence (looked up): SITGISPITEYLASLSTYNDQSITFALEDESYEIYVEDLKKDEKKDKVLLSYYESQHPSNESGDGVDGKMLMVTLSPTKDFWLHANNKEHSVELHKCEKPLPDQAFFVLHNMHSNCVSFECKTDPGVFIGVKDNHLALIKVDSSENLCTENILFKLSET
Briefly: KinExA solution affinity, fixed antigen format, global fit. Background: A kinetic exclusion assay measures how much of one partner remains free in solution.

Assay [2] deals with T2, recombinant human IL-33 (R&D Systems 3625-IL), reduced with DTT (human, UniProt O95760 112-270, limits assumed).
T2 sequence (looked up): T1 sequence (looked up)
Put plainly: cell-based or functional assay.

Assay [3] addresses T2, recombinant human IL-33 (R&D Systems …). Briefly: cell-based or functional assay. This is another data set of the same source.
Assay [4] deals with T3, IL-33 mm2 (human, UniProt O95760 112-270, limits assumed).
T3 sequence (looked up): T1 sequence (looked up) with C97S, C116S, C121S, C148S
Put plainly: cell-based or functional assay.

Assay [5] deals with T4, recombinant human IL-33 (human, UniProt O95760 112-270, limits assumed).
T4 sequence (looked up): T1 sequence (looked up)
Briefly: cell-based or functional assay.

The target in assay [6] is T5, human IL-33 mm2 Cys (human, UniProt O95760 112-270, limits assumed).
T5 sequence (looked up): T1 sequence (looked up) with C97S, C116S, C121S, C148S
Briefly: cell-based or functional assay.

In assay [7] the target is T2, recombinant human IL-33 (R&D Systems …). Briefly: cell-based or functional assay. The source holds these as a separate data set.
Assay [8] deals with T6, recombinant human IL-4 (human, UniProt P05112 25-153).
T6 sequence (looked up): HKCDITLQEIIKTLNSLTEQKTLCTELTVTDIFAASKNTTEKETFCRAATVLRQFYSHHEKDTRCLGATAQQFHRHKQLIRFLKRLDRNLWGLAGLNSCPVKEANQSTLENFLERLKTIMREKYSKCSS
Briefly: cell-based or functional assay.

In assay [9] the target is T6, recombinant human IL-4. Briefly: cell-based or functional assay. This is another data set of the same source.
Assay [10] has as its target T7, recombinant human IL-12 (human, UniProt P29459 23-219; P29460 23-328).
T7 sequence (looked up) 1: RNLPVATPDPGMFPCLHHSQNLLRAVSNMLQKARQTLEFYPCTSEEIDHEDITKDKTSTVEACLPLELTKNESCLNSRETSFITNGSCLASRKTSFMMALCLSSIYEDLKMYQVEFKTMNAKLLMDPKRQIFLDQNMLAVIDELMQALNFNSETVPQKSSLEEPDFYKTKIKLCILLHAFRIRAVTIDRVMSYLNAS
T7 sequence (looked up) 2: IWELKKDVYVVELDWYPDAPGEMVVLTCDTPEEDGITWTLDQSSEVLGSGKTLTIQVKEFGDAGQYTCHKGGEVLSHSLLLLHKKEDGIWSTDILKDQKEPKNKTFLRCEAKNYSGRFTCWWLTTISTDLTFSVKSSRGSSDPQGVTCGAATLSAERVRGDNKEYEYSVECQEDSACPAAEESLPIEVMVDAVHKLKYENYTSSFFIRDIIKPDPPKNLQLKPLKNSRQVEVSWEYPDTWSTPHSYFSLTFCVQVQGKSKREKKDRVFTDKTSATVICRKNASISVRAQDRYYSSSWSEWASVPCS
Put plainly: cell-based or functional assay.

Assay [11] addresses T8, recombinant human IL-23 (human, UniProt Q9NPF7 20-189; P29460 23-328).
T8 sequence (looked up) 1: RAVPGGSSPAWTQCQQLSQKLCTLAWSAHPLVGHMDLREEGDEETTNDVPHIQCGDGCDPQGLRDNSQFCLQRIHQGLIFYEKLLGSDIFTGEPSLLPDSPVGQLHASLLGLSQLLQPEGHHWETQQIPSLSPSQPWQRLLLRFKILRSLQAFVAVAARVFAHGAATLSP
T8 sequence (looked up) 2: T7 sequence (looked up) 2
Briefly: cell-based or functional assay.

Assay [12] has as its target T7, recombinant human IL-12. Briefly: cell-based or functional assay. The source holds these as a separate data set.
The target in assay [13] is T8, recombinant human IL-23. Briefly: cell-based or functional assay. The source holds these as a separate data set.

Numbering of substitutions follows the chain as printed. Where two headings read alike, the source gives them in different places. A value given as a limit tells only on which side of the number the result lay.

B1: IL33-0726 (antibody, human IgG1, kappa, V domains shown)
VH: EVQLVESGGGLVQPGGSLRLSCAASGFTFSSYWMYWVRQAPGKGLEWVAAITPNAGEDYYPESVKGRFTISRDNAKNSLYLQMNSLRAEDTAVYYCARGQYYYTKYSLGYWGQGTLVTVSS
VL: DIQMTQSPSSLSASVGDRVTITCRASQPIHNHLDWYQQKPGKAPKLLIYFGKNLQEGVPSRFSGSGSGTDFTLTISSLQPEDFATYYCFQYKKGWSFGGGTKVEIKR
notes: also called IL33-0726 IgG; IL13433-0726
Usually Kd stands for the concentration at which binding is half-saturated. In [1], B1 had a Kd of less than 0.000237 nM. For the same molecule, the “IC50 [pM] versus human reduced IL-33 (R&D), Experiment 2 (HEK-Blue SEAP)” value in assay [2] amounted to 6 pM. Further, in [3], the “IC50 [nM] versus reduced human IL-33 (R&D), IC50 (AVE)” value came out at 0.008 nM.

B2: IL33-158LS (antibody, V domains shown)
VH: B1 VH with Q100H, K105S
VL: DIQMTQSPSSLSASVGDRVTITCKASQNINKHLDWYQQKPGKAPKLLIYFTNNLQTGVPSRFSGSGSGTDFTLTISSLQPEDFATYYCFQYNQGWTFGGGTKVEIK
As for B2, the “IC50 (mean), IFNg Whole Blood (IL-12 plus IL-33 mm2-Cys)” value in [4] is 0.0162 nM. Moreover, in assay [5], the “IC50 (mean), HEK-Blue IL-33 SEAP” value turned out to be 0.0562 nM.

B3: IL33-0232 (antibody, human IgG1, kappa, V domains shown)
VH: B1 VH with Q100H, K105S
VL: B1 VL with R24K, P28N, H30N, N31K, G51T, K52N, E56T, K92N, K93Q, S96T
Molecule B3 displayed a Kd in assay [1] of 0.0034 nM. Besides, in assay [2], the “IC50 [pM] versus human reduced IL-33 (R&D), Experiment 1 (HEK-Blue SEAP)” value worked out at 35 pM. Also, in assay [6], the “IC50 [pM] versus human IL-33 mm2 Cys (HEK-Blue SEAP)” value worked out at 142 pM. Moreover, the “IC50 [nM] versus reduced human IL-33 (R&D), IC50 (AVE)” value came out at 0.109 nM in assay [3] and 0.071 nM in [7].

B4: IL4-1040 (antibody, human IgG1, kappa, V domains shown)
VH: EVTLRESGPALVKPTQTLTLTCTFSGFSLSNFGEGLSWIRQPPGKGLEWLAHIYWDDDKRYNPSLKSRLTISKDTSRNQVVLTMTNMDPVDTATYYCARRETVFYWYFDVWGQGTTVTVSS
VL: DIQMTQSPSSLSASVGDRVTITCRASQSVDEEGDSYMNWYQQKPGKAPKLLIYAASNLESGVPSRFSGSGSGTDFTLTISSLQPEDFATYYCQQSNKDPPTFGGGTKVEIKR
For the molecule B4, the “IL-4 induced CD23 upregulation (IC50), parental IgG” value in assay [8] came out at 0.00323 nM. In addition, the “IC50 (median), IL-4 induced CD23 expression on human monocytes” value in assay [9] stood at 0.00323 nM.

B5: p40-0003 (antibody, human IgG1, kappa, V domains shown)
VH: EVQLVQSGAEVKKPGESLKISCKGSGYSFTTYWLGWVRQMPGKGLDWIGIMSPVDSDIRYSPSFQGQVTMSVDKSITTAYLQWNSLKASDTAMYYCARRRPGQGYFDFWGQGTLVTVSS
VL: DIQMTQSPSSLSASVGDRVTITCRASQGISSWLAWYQQKPEKAPKSLIYAASSLQSGVPSRFSGSGSGTDFTLTISSLQPEDFATYYCQQYNIYPYTFGQGTKLEIKR
In the case of B5, in [10], the “IC50 (mean), Kit-225 assay, IL-12 induced phospho-STAT4” value worked out at 0.155 nM and the “IC50 (mean), Whole blood assay, IL-12 induced phospho-STAT4” value is 0.262 nM. Moreover, in assay [11], the “IC50 (mean), Kit-225 assay, IL-23 induced phospho-STAT3” value is 0.85 nM and the “IC50 (mean), Whole blood assay, IL-23 induced phospho-STAT3” value was 4.51 nM. In assay [12], the “IC50 (mean), Kit-225 assay, IL-12 induced phospho-STAT4” value turned out to be 0.155 nM and the “IC50 (mean), Whole blood assay, IL-12 induced phospho-STAT4” value worked out at 0.262 nM. In assay [13], the “IC50 (mean), Kit-225 assay, IL-23 induced phospho-STAT3” value amounted to 0.85 nM and the “IC50 (mean), Whole blood assay, IL-23 induced phospho-STAT3” value was 4.51 nM.

B6: IL4-0002 (antibody, human IgG1, kappa)
heavy: EVTLRESGPALVKPTQTLTLTCTFSGFSLSNFGEGLSWIRQPPGKGLEWLAHIYWDDDKRYNPSLKSRLTISKDTSRNQVVLTMTNMDPVDTATYYCARRETVFYWYFDVWGQGTTVTVSSASTKGPSVFPLAPSSKSTSGGTAALGCLVKDYFPEPVTVSWNSGALTSGVHTFPAVLQSSGLYSLSSVVTVPSSSLGTQTYICNVNHKPSNTKVDKKVEPKSCDKTHTCPPCPAPEAAGAPSVFLFPPKPKDTLMISRTPEVTCVVVDVSHEDPEVKFNWYVDGVEVHNAKTKPREEQYNSTYRVVSVLTVLHQDWLNGKEYKCKVSNKALPAPIEKTISKAKGQPREPQVYTLPPSREEMTKNQVSLTCLVKGFYPSDIAVEWESNGQPENNYKTTPPVLDSDGSFFLYSKLTVDKSRWQQGNVFSCSVMHEALHNHYTQKSLSLSPGK
light: DIQMTQSPSSLSASVGDRVTITCKASQSVDEDGDSYMNWYQQKPGKAPKLLIYAASNLESGVPSRFSGSGSGTDFTLTISSLQPEDFATYYCQQSNEDPPTFGGGTKVEIKRTVAAPSVFIFPPSDEQLKSGTASVVCLLNNFYPREAKVQWKVDNALQSGNSQESVTEQDSKDSTYSLSSTLTLSKADYEKHKVYACEVTHQGLSSPVTKSFNRGEC
With B6, in assay [8], the “IL-4 induced CD23 upregulation (IC50), parental IgG” value came to 0.00206 nM. The “IC50 (median), IL-4 induced CD23 expression on human monocytes” value in assay [9] stood at 0.00209 nM.
